Results taken from US20220112276A1 (Janssen / Centocor, published 2022).

T1: mouse pIgR extracellular domain (ECD) (mouse, UniProt O70570 19-645)
T1 construct: Bought from R&D Systems (Cat 2800-PG-050); also called mpIgR ECD
T1 sequence: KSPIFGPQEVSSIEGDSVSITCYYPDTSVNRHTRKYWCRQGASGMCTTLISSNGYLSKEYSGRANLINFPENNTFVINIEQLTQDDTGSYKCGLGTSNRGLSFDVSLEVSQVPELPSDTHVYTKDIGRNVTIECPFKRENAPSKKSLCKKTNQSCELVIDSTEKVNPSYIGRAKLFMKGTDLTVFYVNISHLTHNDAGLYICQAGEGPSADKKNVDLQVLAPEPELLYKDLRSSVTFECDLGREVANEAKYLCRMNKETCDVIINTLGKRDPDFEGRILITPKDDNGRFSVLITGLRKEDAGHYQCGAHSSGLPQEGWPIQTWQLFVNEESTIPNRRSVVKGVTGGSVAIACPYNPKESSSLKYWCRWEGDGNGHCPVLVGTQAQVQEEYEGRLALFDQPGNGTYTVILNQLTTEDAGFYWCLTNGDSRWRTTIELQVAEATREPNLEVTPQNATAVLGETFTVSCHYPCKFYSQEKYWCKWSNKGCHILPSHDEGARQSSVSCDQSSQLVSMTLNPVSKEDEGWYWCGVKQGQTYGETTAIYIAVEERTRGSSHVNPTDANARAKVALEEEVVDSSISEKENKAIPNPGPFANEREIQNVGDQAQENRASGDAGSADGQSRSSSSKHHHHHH

T2: rat pIgR extracellular domain (rat, UniProt P15083 19-643)
T2 construct: extracellular domain
T2 sequence (looked up): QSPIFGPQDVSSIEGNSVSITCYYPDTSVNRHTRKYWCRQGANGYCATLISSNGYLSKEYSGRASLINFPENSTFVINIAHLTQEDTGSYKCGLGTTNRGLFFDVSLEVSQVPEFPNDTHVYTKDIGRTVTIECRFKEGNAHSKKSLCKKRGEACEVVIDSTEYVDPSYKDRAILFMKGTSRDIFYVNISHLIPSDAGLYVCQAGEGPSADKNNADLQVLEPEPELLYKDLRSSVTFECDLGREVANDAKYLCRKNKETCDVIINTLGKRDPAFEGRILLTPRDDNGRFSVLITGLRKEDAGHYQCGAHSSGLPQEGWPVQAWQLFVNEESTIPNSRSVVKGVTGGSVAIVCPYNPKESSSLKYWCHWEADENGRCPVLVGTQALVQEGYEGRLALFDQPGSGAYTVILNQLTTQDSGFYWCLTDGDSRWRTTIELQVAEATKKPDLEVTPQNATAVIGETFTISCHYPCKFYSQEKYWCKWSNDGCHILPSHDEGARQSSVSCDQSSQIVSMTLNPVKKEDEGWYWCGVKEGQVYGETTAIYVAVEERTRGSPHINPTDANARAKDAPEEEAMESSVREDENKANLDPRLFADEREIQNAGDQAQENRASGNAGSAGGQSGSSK


What was measured:
[1] = target: T1, mouse pIgR extracellular domain (ECD); test: SPR, VHH captured by anti-Fc, ECD analyte
Outline: (§1)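 Anti-human Fc surface captured VHH at 0.5 ug/ml (~200-300 RU); running buffer HBSP with 100 ug/ml BSA, 30 μL/min. Single-cycle kinetics with ECD injected low to high from 30 nM in 3-fold dilutions, dissociation 30 min. Double-referenced data globally fit to 1:1 Langmuir model for kon, koff, KD.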

[2] = target: T3, human pIgR extracellular domain (ECD) (human, UniProt P01833 19-638); test: SPR
T3 construct: Bought from R&D Systems (Cat 2717-PG-050); also called hpIgR ECD

[3] = target: T2, rat pIgR extracellular domain; test: SPR, VHH captured by anti-Fc, ECD analyte
Outline: as §1

[4] = target: T4, cynomolgus monkey pIgR extracellular domain (cynomolgus monkey, UniProt A0A2K5WMU9 19-638); test: SPR, VHH captured by anti-Fc, ECD analyte
T4 construct: extracellular domain
Outline: as §1

T3 sequence (P01833 other isoform, or with tags, fused parts or gaps): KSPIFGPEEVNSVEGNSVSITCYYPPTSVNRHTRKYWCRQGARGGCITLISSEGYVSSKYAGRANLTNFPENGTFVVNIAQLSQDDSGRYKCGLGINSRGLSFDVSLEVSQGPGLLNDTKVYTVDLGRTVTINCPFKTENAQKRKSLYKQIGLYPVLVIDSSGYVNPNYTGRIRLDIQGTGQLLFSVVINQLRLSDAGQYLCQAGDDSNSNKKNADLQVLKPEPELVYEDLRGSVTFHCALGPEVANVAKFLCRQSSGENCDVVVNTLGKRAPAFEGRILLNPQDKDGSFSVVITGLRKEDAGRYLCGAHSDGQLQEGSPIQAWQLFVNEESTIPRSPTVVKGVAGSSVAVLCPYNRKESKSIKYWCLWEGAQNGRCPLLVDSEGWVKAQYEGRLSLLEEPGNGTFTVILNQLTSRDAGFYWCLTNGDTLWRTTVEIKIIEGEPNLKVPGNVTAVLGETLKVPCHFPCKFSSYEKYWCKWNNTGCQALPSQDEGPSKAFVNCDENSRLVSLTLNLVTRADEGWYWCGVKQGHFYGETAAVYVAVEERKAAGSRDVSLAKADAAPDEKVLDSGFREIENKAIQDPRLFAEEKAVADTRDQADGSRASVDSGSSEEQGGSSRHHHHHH
T4 sequence (A0A2K5WMU9 entry or part of it): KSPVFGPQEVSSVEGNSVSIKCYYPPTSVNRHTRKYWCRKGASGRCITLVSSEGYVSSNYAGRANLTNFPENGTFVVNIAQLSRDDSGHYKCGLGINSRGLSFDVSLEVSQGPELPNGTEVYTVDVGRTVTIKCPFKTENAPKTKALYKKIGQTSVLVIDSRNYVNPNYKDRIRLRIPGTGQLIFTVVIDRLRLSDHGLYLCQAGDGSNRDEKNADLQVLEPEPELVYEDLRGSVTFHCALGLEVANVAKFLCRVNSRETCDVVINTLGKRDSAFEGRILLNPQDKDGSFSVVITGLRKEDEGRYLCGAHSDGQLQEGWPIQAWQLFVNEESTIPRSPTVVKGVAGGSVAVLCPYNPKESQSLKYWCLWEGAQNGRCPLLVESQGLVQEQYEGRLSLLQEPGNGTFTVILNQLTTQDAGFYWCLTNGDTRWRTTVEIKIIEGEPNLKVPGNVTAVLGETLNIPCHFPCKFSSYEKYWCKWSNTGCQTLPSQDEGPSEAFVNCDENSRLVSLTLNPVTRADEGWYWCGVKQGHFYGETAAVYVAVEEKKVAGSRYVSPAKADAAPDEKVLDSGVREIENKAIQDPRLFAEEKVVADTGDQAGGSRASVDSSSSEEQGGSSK

| Kd [1] | binding result [2] | Kd [3] | Kd [4] | Binder |
| --- | --- | --- | --- | --- |
| 19.8 nM | no binding (tested: 30 nM) |  |  | 01G05R2LS VHH Mono-Fc (Fc fusion) QVQLVESGGGLVQAGDSLALSCAGSGDTFSNYAMGWFRQAPGKEREFVADISWYSANIGYADSVKGRFTISRDNAKNMVTLRMNSLKPEDTAVYYCAADRNHWPVKGDYWGQGTQVTVSSSPAPELLGGPSVFLFPPKPKDTLMISRTPEVTCVVVDVSHEDPEVKFNWYVDGVEVHNAKTKPREEQYNSTYRVVSVLTVLHQDWLNGKEYKCKVSNKALPAPIEKTISKAKGQPREPQVYTKPPSREEMTKNQVSLSCLVKGFYPSDIAVEWESNGQPENNYKTTVPVLDSDGSFRLASYLTVDKSRWQQGNVFSCSVMHEALHNHYTQKSLSLSPGK |
| 46.6 nM | no binding (tested: 30 nM) | 25.4 nM |  | 02H04R3 VHH Mono-Fc (Fc fusion) EVQLVESGGGLVQPGGRLRLSCAASGSIFSIRDMGWYRQAPGKQRELVAIFARGGSTHYADSVKGRFTISRDNAKNTVYLQMNSLEPEDTAAYYCNAEVATMIQPGFRDYWGQGTQVTVSSSPAPELLGGPSVFLFPPKPKDTLMISRTPEVTCVVVDVSHEDPEVKFNWYVDGVEVHNAKTKPREEQYNSTYRVVSVLTVLHQDWLNGKEYKCKVSNKALPAPIEKTISKAKGQPREPQVYTKPPSREEMTKNQVSLSCLVKGFYPSDIAVEWESNGQPENNYKTTVPVLDSDGSFRLASYLTVDKSRWQQGNVFSCSVMHEALHNHYTQKSLSLSPGK |
| 33.1 nM | no binding (tested: 30 nM) | 16 nM |  | 01C03R3L VHH Mono-Fc (Fc fusion) QVQLVESGGGLVQPGGRLRLSCAASGSIFSIRDMGWYRQAPGKQRELVAIFARGGSTHYADSVKGRFTISRDNAKNTVYLQMNSLEPEDTAAYYCNAEVATMIQPGFRDYWGQGTLVTVSSSPAPELLGGPSVFLFPPKPKDTLMISRTPEVTCVVVDVSHEDPEVKFNWYVDGVEVHNAKTKPREEQYNSTYRVVSVLTVLHQDWLNGKEYKCKVSNKALPAPIEKTISKAKGQPREPQVYTKPPSREEMTKNQVSLSCLVKGFYPSDIAVEWESNGQPENNYKTTVPVLDSDGSFRLASYLTVDKSRWQQGNVFSCSVMHEALHNHYTQKSLSLSPGK |
| 6.06 nM | no binding (tested: 30 nM) | 2.91 nM |  | 01A03R3L VHH Mono-Fc (Fc fusion) EVQLVESGGGLVQPGGQLRLSCAASGSIASVRDMAWYRQAPGKQRGLVAIFARGGTTHYADSVKGRFTISRDNAKNTVYLQMNSLEPEDTAAYYCNAEVATMFQPGFRDYWGRGTLVTVSSSPAPELLGGPSVFLFPPKPKDTLMISRTPEVTCVVVDVSHEDPEVKFNWYVDGVEVHNAKTKPREEQYNSTYRVVSVLTVLHQDWLNGKEYKCKVSNKALPAPIEKTISKAKGQPREPQVYTKPPSREEMTKNQVSLSCLVKGFYPSDIAVEWESNGQPENNYKTTVPVLDSDGSFRLASYLTVDKSRWQQGNVFSCSVMHEALHNHYTQKSLSLSPGK |
| 1.34 nM | no binding (tested: 30 nM) | 0.448 nM |  | 02D06R3 VHH Mono-Fc (Fc fusion) QVQLVESGGGLVQPGGRLRLSCAASGSIFSIRDMAWYRQAPGKQREWVAIAARGGSTHYADSVKGRFTISRDNAKNTVYLQMNTLEPEDTAAYYCNAEVATMIQPGFRDYWGQGTQVTVSSSPAPELLGGPSVFLFPPKPKDTLMISRTPEVTCVVVDVSHEDPEVKFNWYVDGVEVHNAKTKPREEQYNSTYRVVSVLTVLHQDWLNGKEYKCKVSNKALPAPIEKTISKAKGQPREPQVYTKPPSREEMTKNQVSLSCLVKGFYPSDIAVEWESNGQPENNYKTTVPVLDSDGSFRLASYLTVDKSRWQQGNVFSCSVMHEALHNHYTQKSLSLSPGK |
| 2.76 nM | no binding (tested: 30 nM) | 1.32 nM |  | 02B03R3 VHH Mono-Fc (Fc fusion) EVQLVESGGGLVQSGGQLRLSCAASGSIASIRDMAWYRQAPGKQRELVAIFARGGTTHYADSVKGRFTISRDNAKNTVYLQMNSLEPEDTAAYYCNAEVATMFQPGFRDYWGRGTLVTVSSSPAPELLGGPSVFLFPPKPKDTLMISRTPEVTCVVVDVSHEDPEVKFNWYVDGVEVHNAKTKPREEQYNSTYRVVSVLTVLHQDWLNGKEYKCKVSNKALPAPIEKTISKAKGQPREPQVYTKPPSREEMTKNQVSLSCLVKGFYPSDIAVEWESNGQPENNYKTTVPVLDSDGSFRLASYLTVDKSRWQQGNVFSCSVMHEALHNHYTQKSLSLSPGK |
| 3.98 nM | no binding (tested: 30 nM) |  | 2.72 nM | 01F05R2LS VHH Mono-Fc (Fc fusion) QVQLVESGGGLVQAGGSLRLSCAASGSIFAINGMGWYRQAPGKQRELVAVITRGGSTNYADSVKGRFTISRDNAKNTVSLQMNSLKPEDTAVYYCAATGVLAGWAAGDGMDYWGKGTLVTVSSSPAPELLGGPSVFLFPPKPKDTLMISRTPEVTCVVVDVSHEDPEVKFNWYVDGVEVHNAKTKPREEQYNSTYRVVSVLTVLHQDWLNGKEYKCKVSNKALPAPIEKTISKAKGQPREPQVYTKPPSREEMTKNQVSLSCLVKGFYPSDIAVEWESNGQPENNYKTTVPVLDSDGSFRLASYLTVDKSRWQQGNVFSCSVMHEALHNHYTQKSLSLSPGK |
| 0.71 nM | no binding (tested: 30 nM) | 1.74 nM |  | 02H11R3 VHH Mono-Fc (Fc fusion) EVQLVESGGGSVQAGGSLRLSCAASGRTFSNYAMGWFRQAPGKEREFVAGISRSGGSTYSADSVKGRFTISRDNAKNTVYLQMNSLKPEDTAVYYCAADGLDYALGFRGDYWGQGTQVTVSSSPAPELLGGPSVFLFPPKPKDTLMISRTPEVTCVVVDVSHEDPEVKFNWYVDGVEVHNAKTKPREEQYNSTYRVVSVLTVLHQDWLNGKEYKCKVSNKALPAPIEKTISKAKGQPREPQVYTKPPSREEMTKNQVSLSCLVKGFYPSDIAVEWESNGQPENNYKTTVPVLDSDGSFRLASYLTVDKSRWQQGNVFSCSVMHEALHNHYTQKSLSLSPGK |
| 0.796 nM | no binding (tested: 30 nM) | 1.61 nM |  | 01G03R3L VHH Mono-Fc (Fc fusion) QVQLVESGGGSVQAGGSLRLSCAASGRTFSNYAMGWFRQAPGKEREFVAGISRSGGSTYSADSVKGRFTISRDNAKNTVYLQMNSLKPEDTAVYYCAADGLDYALGFRGDYWGQGTLVTVSSSPAPELLGGPSVFLFPPKPKDTLMISRTPEVTCVVVDVSHEDPEVKFNWYVDGVEVHNAKTKPREEQYNSTYRVVSVLTVLHQDWLNGKEYKCKVSNKALPAPIEKTISKAKGQPREPQVYTKPPSREEMTKNQVSLSCLVKGFYPSDIAVEWESNGQPENNYKTTVPVLDSDGSFRLASYLTVDKSRWQQGNVFSCSVMHEALHNHYTQKSLSLSPGK |
| 3.29 nM | no binding (tested: 30 nM) |  |  | 01A04R3LS VHH Mono-Fc (Fc fusion) QVQLVESGGGSVQPGGSLRLSCAASGIDVSISTIMWYRQPPGRQRELVADVIPSGRSTTYTESVKGRFTVTRDNAKNTVYLQMSGLKPEDTAVYYCNAFVRRENYWGQGTQVTVSSSPAPELLGGPSVFLFPPKPKDTLMISRTPEVTCVVVDVSHEDPEVKFNWYVDGVEVHNAKTKPREEQYNSTYRVVSVLTVLHQDWLNGKEYKCKVSNKALPAPIEKTISKAKGQPREPQVYTKPPSREEMTKNQVSLSCLVKGFYPSDIAVEWESNGQPENNYKTTVPVLDSDGSFRLASYLTVDKSRWQQGNVFSCSVMHEALHNHYTQKSLSLSPGK |
